In patent publication US20220135687A1 (NANJING LEGEND BIOTECH, published 2022):
Where two headings read alike, the source gives them in different places.

Legend:
[1] = molecular target: T1, His-tagged PD-L1 ECD protein (ACROBiosystems) (human, UniProt Q9NZQ7 19-238); assay: SPR, IgG captured by anti-human Fc, PD-L1-His analyte
T1 construct: Bought protein; also called PD-L1-His; PD-L1/His; not shown: His tag
Procedure: (§1) Briefly, capturing antibody (anti-mouse Fc antibody for the affinity measurement of mouse mAbs, or anti-human Fc antibody for the affinity measurement of chimeric and humanized mAbs, GE healthcare) was immobilized on a Biacore™ CM5 chip to approximately 7,000 RU using EDC-activated amine coupling chemistry. Antibody of interest (5 μg/ml) was captured for 60 seconds onto the sensorchip surface. His-tagged PD-L1 ECD protein (ACROBiosystems) was flowed over the sensorchip surface at a series concentrations. Flow rate was 30 μl/min in all experiments. Association and dissociation phases were 5 and 15 min, respectively. The chip was regenerated using Glycine/HCl pH 1.5. Captured antibody and antigen were removed between each cycle using 50 mM HCl in order to ensure a fresh binding surface for each concentration of antigen. The resulting sensorgrams were fit globally using a 1:1 binding model in order to calculate on- and off-rates (ka and kd, respectively), as well as affinities (KD).

[2] = molecular target: T2, cynomolgus PD-L1 overexpressing stable cell line (cynomolgus, UniProt G7PSE7 19-290); assay: FACS, cynomolgus PD-L1 cell line
T2 construct: also called cynomolgus PD-L1 overexpressing cell line
T2 sequence (G7PSE7 entry or part of it limits assumed): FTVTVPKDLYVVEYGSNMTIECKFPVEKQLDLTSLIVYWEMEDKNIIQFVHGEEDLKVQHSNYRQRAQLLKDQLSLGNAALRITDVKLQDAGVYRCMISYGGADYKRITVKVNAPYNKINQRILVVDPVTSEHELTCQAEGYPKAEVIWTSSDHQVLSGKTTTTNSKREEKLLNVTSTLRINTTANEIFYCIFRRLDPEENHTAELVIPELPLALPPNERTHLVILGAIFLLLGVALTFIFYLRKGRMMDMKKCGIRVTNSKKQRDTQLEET

[3] = molecular target: T3, human PD-L1 expressed on CHO-K1 cells (Genscript, Cat #M00543) (human, UniProt Q9NZQ7 19-290); assay: FACS competition vs biotin-PD-1-Fc on CHO-K1/human PD-L1 cells
T3 construct: also called PD-L1 cell line
T3 sequence (Q9NZQ7 19-290, one chain of several): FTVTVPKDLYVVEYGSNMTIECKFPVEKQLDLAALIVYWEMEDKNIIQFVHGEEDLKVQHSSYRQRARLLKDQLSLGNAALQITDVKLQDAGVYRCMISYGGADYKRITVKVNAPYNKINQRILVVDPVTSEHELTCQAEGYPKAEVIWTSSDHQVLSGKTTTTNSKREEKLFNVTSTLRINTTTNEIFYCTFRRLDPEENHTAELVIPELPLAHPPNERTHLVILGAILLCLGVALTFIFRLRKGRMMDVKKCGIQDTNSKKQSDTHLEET
Procedure: A series of diluted mouse mAbs (concentration starting from 900 nM, 3 fold dilution, 50 μl per well) were added afterwards. The mixture was incubated at 4° C. for 30 minutes, washed twice with wash buffer, followed by the addition of PEcy5/streptavidin (1 μg/ml, 150 μl/well). The plates were again incubated at 4° C. for 30 minutes before the cells in each well were analyzed by FACSCalibur (BD Bioscience, San Jose, Calif.) and Flowjo software.

[4] = molecular target: T3, human PD-L1 expressed on CHO-K1 cells …; assay: FACS, CHO-K1/human PD-L1 cells
Procedure: (§2) PD-L1 stable cell line binding activity assessment of 12 mouse mAbs was carried out using FACS. CHO-K1 cells expressing human PD-L1 (Genscript, Cat #M00543) were dissociated from adherent culture flasks and mixed with varying concentrations of antibodies. The antibody and cells were incubated for 30 minutes at room temperature, washed three times with FACS buffer (PBS containing 1% BSA). PE-labeled goat anti-mouse IgG (minimal x-reactivity) secondary antibody (BioLegend, Cat #405307) was added and incubated at room temperature for 15 minutes. Cells were washed again with FACS buffer and analyzed by FACSCalibur (BD Bioscience, San Jose, Calif.) and Flowjo software. Data were analyzed with Prism 6 (GraphPad Software, San Diego, Calif.) using non-linear regression, and EC₅₀ values were calculated (FIGS. 2A-2L and Table 3).
Human and cynomolgus PD-L1 stable cell line binding activity assessment of chimeric and humanized mAbs was carried out using FACS as described above (FIGS. 9A-9L and FIGS. 10A-10L and Tables 13 and 14).

[5] = molecular target: T3, human PD-L1 expressed on CHO-K1 cells …; assay: cell-based or functional assay
[6] = molecular target: cynomolgus PD-L1 Fc-fusion protein (cynomolgus, UniProt G7PSE7 19-238); assay: SPR, cyno PD-L1-Fc immobilised, antibody analyte
Chain of cynomolgus PD-L1 Fc-fusion protein (G7PSE7 entry or part of it limits assumed): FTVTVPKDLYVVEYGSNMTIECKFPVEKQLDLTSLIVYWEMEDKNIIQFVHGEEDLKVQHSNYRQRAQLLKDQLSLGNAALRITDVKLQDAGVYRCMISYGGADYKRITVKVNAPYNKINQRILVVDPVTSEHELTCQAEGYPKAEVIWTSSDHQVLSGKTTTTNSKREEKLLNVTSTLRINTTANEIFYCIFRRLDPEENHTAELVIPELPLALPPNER

[7] = molecular target: T1, His-tagged PD-L1 ECD protein …; assay: SPR, supernatant IgG captured, PD-L1-His analyte
[8] = molecular target: T1, His-tagged PD-L1 ECD protein …; assay: SPR, supernatant IgG captured, PD-L1-His analyte; remark: listed apart in the source
[9] = molecular target: T3, human PD-L1 expressed on CHO-K1 cells …; assay: FACS, CHO-K1/human PD-L1 cells; remark: listed apart in the source
Procedure: as §2

[10] = molecular target: T3, human PD-L1 expressed on CHO-K1 cells …; assay: cell-based or functional assay; remark: listed apart in the source
[11] = molecular target: T1, His-tagged PD-L1 ECD protein …; assay: SPR, supernatant IgG captured, PD-L1-His analyte; remark: listed apart in the source
[12] = molecular target: T1, His-tagged PD-L1 ECD protein …; assay: SPR, mAb captured via anti-Fc, PD-L1-His analyte
Procedure: as §1

T1 sequence (Q9NZQ7 19-238): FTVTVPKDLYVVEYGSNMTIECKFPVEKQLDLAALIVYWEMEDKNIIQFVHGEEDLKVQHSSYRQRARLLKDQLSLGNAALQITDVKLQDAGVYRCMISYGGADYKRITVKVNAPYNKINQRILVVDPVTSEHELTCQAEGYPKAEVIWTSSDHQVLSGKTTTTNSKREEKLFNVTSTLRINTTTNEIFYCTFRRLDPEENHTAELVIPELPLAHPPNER

Row | Binder | Kd [1] [nM] | koff [1] [s⁻¹] | kon [1] [M⁻¹ s⁻¹] | EC50 [2] [nM] | Top (best-fit value) [2] | IC50 [3] [nM] | EC50 [4] [nM] | Top (best-fit value) [4] | EC50, PD-L1 cell-based luciferase reporter assay [5] [nM] | Kd [6] [nM] | koff [6] [s⁻¹] | kon [6] [M⁻¹ s⁻¹] | Kd [8] [nM] | koff [8] [s⁻¹] | kon [8] [M⁻¹ s⁻¹] | EC50 [9] [nM] | Top (best-fit value) [9] | EC50, PD-L1 cell-based luciferase reporter assay [10] [nM] | further results
1 | 29A8_VH1-VL1.M1 (antibody, human IgG1, kappa, N297A, Humanized, hIgG1 effector-less Fc, kappa; see recheck on K24R in the .M1 light chain) heavy: not shown light: DIQMTQSPSSLSASVGDRVTITCRASQDVSPAVAWYQQKPGKAPKLLIYWASTRHTGVPSRFSGSGSGTDFTLTISSLQPEDFATYYCQQHYSTPWTFGQGTKVEIKRTVAAPSVFIFPPSDEQLKSGTASVVCLLNNFYPREAKVQWKVDNALQSGNSQESVTEQDSKDSTYSLSSTLTLSKADYEKHKVYACEVTHQGLSSPVTKSFNRGEC | 1.4 | 0.0008 | 590000 | 3.53 | 7470 | 0.463 | 1.75 | 6400 | 2.01 | 4 | 0.00043 | 110000 | 1.5 | 0.00071 | 470000 | – | – | – | –
2 | 51F3D2G4 (antibody, V domains shown, Mouse mAb from hybridoma culture) VH: QVQLQQSGAELARPGASVRLSCKASGYIFTGYGISWVKQRTGQGLEWIGEIFPRTANTYFNEKFKGKATLTADKSSSTAYMELRSLTSEDSAVYFCARDYDPYYALDYWGQGTSVTVSS VL: DIVMTQSHKFMSTSVGDRVTITCKASQDVSTAVDWYQQKPGQSPKLLIYSASYRYTGVPDRFTGSGSGTAFTFTISSEQAEDLAVYYCQQHYSVPFTFGGGTKLEIK | – | – | – | – | – | 1.23 | – | – | – | – | – | – | – | – | – | 2.13 | 1720 | 8.69 | –
3 | 53C1_chimeric (antibody, human IgG1, kappa, N297A, V domains shown, Human IgG1 with effector-less Fc mutations, human kappa; also called chimeric 53C1F3D4) VH: QVQLQQSGNELARPGASVRLSCKASGYIFTGYGITWVRQRPGQGLEWIGEIFPRRVNTYYSEKFKGRATLTADISSSTAYMELRSLTSEDSAVYFCARDYDPYFALDYWGQGTSVTVSS VL: DIVMTQSHKFMSTSVGDRVSITCKASQDVSTAVDWYQQKPGQSPKLLIYSASYRYTGVPDRFTGSGSGTAFTFTISGEQAEDLAVYYCQQHYSIPFTFGGGTKLEIKR | 0.78 | 0.00019 | 240000 | 2.88 | 8490 | 0.59 | 1.79 | 6230 | 1.98 | 1.1 | 9.5e-05 | 87000 | – | – | – | – | – | – | Kd [11]: 0.75 nM; koff [11]: 0.00019 s⁻¹; kon [11]: 260000 M⁻¹ s⁻¹; Kd [7]: 0.72 nM; koff [7]: 0.00018 s⁻¹; kon [7]: 250000 M⁻¹ s⁻¹
4 | 29A8H8C7 (antibody, V domains shown, Mouse mAb from hybridoma culture; also called mouse 29A8H8C7) VH: DVQLQGSGPGLVKPSQSLSLTCTVTGYSITSDFAWDWIRQFPGNKLEWMGHIRFSGTTSYNPSLKSRISITRDTSKNQFFLQLNSVTSEDTATYYCARSTLITKGFFDYWGQGTTLTVSS VL: DIVMTQSHKFMSTSVGGRVSITCKASQDVSPAVAWYQQKPGQSPKLLIYWASTRHTGVPDRFTGSGSGTDFTLTISSVQTEDLALYYCQQHYSTPWTFGGGTKLEIK | – | – | – | – | – | 1.41 | – | – | – | – | – | – | – | – | – | 3.06 | 2440 | 3.61 | Kd [12]: 0.28 nM; koff [12]: 0.00017 s⁻¹; kon [12]: 620000 M⁻¹ s⁻¹
5 | 27D3D3G2 (antibody, V domains shown, Mouse mAb from hybridoma culture) VH: QVLLQQSGPELVKPGASVRISCKASGYTFTSYYMHWVKQRPGQGLEWIGWIYPGNVNTKYNEKFKGKATLTADKSSSTAYMQLSSLTSEDSAVYFCASYGNYGGWYFDVWGAGTTVTVSS VL: DIQMTQTTSSLSASLGDRVTISCRASQDIGNYLNWYQQKPDGTVKLLIYYTSRLHSGVPSRFSGSGSGTDYSLTISNLEQEDIATYFCQQGDTFPWTFGGGTKLEIK | – | – | – | – | – | 1.28 | – | – | – | – | – | – | – | – | – | 4.19 | 1770 | 3.62 | –

The remaining binders from weak to strong by IC50 [3], led by results:

Row | Kd [1] [nM] | koff [1] [s⁻¹] | kon [1] [M⁻¹ s⁻¹] | EC50 [2] [nM] | Top (best-fit value) [2] | IC50 [3] [nM] | EC50 [4] [nM] | Top (best-fit value) [4] | EC50, PD-L1 cell-based luciferase reporter assay [5] [nM] | Kd [6] [nM] | koff [6] [s⁻¹] | kon [6] [M⁻¹ s⁻¹] | Kd [8] [nM] | koff [8] [s⁻¹] | kon [8] [M⁻¹ s⁻¹] | EC50 [9] [nM] | Top (best-fit value) [9] | EC50, PD-L1 cell-based luciferase reporter assay [10] [nM] | Binder | further results
6 | 0.74 | 0.00046 | 620000 | 3.07 | 7950 | 0.545 | 1.31 | 5100 | 1.81 | 0.98 | 0.0002 | 200000 | 0.76 | 0.00042 | 550000 | – | – | – | 29A8_VH5-VL1.M1 (antibody, human IgG1, kappa, N297A, V domains shown, Humanized, hIgG1 effector-less Fc, kappa; see recheck on K24R in the .M1 light chain) VH: EVQLQESGPGLVKPSETLSLTCTVSGYSITSDFAWDWIRQPPGKGLEWIGHIRFSGTTSYNPSLKSRVTISRDTSKNQFSLKLSSVTAADTAVYYCARSTLITKGFFDYWGQGTLVTVSS VL: DIQMTQSPSSLSASVGDRVTITCRASQDVSPAVAWYQQKPGKAPKLLIYWASTRHTGVPSRFSGSGSGTDFTLTISSLQPEDFATYYCQQHYSTPWTFGQGTKVEIKR | –
7 | 0.55 | 0.00016 | 290000 | 4.66 | 8310 | 0.482 | 2 | 6410 | 2.26 | 0.71 | 6.8e-05 | 95000 | – | – | – | – | – | – | 53C1_VH3-VL1.M1 (antibody, human IgG1, kappa, N297A, V domains shown, Humanized, hIgG1 effector-less Fc, kappa; see recheck on K24R in the .M1 light chain) VH: EVQLVQSGAEVKKPGASVKLSCKASGYIFTGYGITWVRQAPGQGLEWIGEIFPRRVNTYYSEKFKGRATLTADTSTSTAYMELRSLRSDDTAVYFCARDYDPYFALDYWGQGTTVTVSS VL: DIQMTQSPSSLSASVGDRVTITCRASQDVSTAVDWYQQKPGKAPKLLIYSASYRYTGVPDRFSGSGSGTDFTFTISSLQPEDIATYYCQQHYSIPFTFGQGTKLEIKR | Kd [7]: 0.49 nM; koff [7]: 0.00015 s⁻¹; kon [7]: 300000 M⁻¹ s⁻¹
8 | 1.1 | 0.00071 | 630000 | 1.49 | 7820 | 0.385 | 1.05 | 5180 | 1.24 | 3.3 | 0.00044 | 130000 | 1.1 | 0.00063 | 560000 | – | – | – | 29A8_VH4-VL1.M1 (antibody, human IgG1, kappa, N297A, Humanized, hIgG1 effector-less Fc, kappa; see recheck on K24R in the .M1 light chain) heavy: not shown light: DIQMTQSPSSLSASVGDRVTITCRASQDVSPAVAWYQQKPGKAPKLLIYWASTRHTGVPSRFSGSGSGTDFTLTISSLQPEDFATYYCQQHYSTPWTFGQGTKVEIKRTVAAPSVFIFPPSDEQLKSGTASVVCLLNNFYPREAKVQWKVDNALQSGNSQESVTEQDSKDSTYSLSSTLTLSKADYEKHKVYACEVTHQGLSSPVTKSFNRGEC | –
9 | 0.3 | 0.00019 | 640000 | 2.77 | 8670 | 0.3 | 1.08 | 6410 | 1.34 | 0.48 | 7.3e-05 | 150000 | 0.25 | 0.00015 | 580000 | – | – | – | 29A8_chimeric (antibody, human IgG1, kappa, N297A, V domains shown, Human IgG1 with effector-less Fc mutations, human kappa; also called chimeric 29A8H8C7) VH: DVQLQGSGPGLVKPSQSLSLTCTVTGYSITSDFAWDWIRQFPGNKLEWMGHIRFSGTTSYNPSLKSRISITRDTSKNQFFLQLNSVTSEDTATYYCARSTLITKGFFDYWGQGTTLTVSS VL: DIVMTQSHKFMSTSVGGRVSITCKASQDVSPAVAWYQQKPGQSPKLLIYWASTRHTGVPDRFTGSGSGTDFTLTISSVQTEDLALYYCQQHYSTPWTFGGGTKLEIKR | Kd [11]: 0.32 nM; koff [11]: 0.00017 s⁻¹; kon [11]: 530000 M⁻¹ s⁻¹
